Consider 22 sequences from the DeepSol protein solubility set.

The nature of the data set: soluble on expression in E. coli; label from the status in PepcDB or PDB records.
For the sequence “MNNSAFTFQTLHPDTIMDALFKQGIRVDSGLTPLNSYENRVYQFQDEERRRFVVKFYRPERWTADQILEEHQFALQLVNDEVPVAAPVAFNGQTLLNHQGFYFAVFPSVGGRQFEADNIDQMEAVGRYLGRMHQTGRKQLFIHRPTIGLNEYLIEPRKLFEDATLIPSGLKAAFLKATDELIAAVTAHWREDFTVLRLHGDCHAGNILWRDGPMFVDLDDARNGPAIQDLWMLLNGDKAQQRMQLETIIEAYEEFSEFDTAEIGLIEPLRAMRLVYYLAWLMRHWADPAFPKNFPWLTGEDYWLRQTATFIEQAKVLQEPPLQLTPMY”, the “soluble on expression in E. coli” value is listed as “not soluble”.

“MSLELPSFIFQAQENLVERPWGGEWIALLKGFRQSGIGESWEFSAHTSRPSTVLVKGQQLSMIELFSKHRDELLGRAAEKFSKFPILVRLIDAASPTQVHVHPSDKAAESLGEAEGGVESAWLVFNKGKAYAGFKEDVKIEELEEKLKEEDFDFKTLLNTFETTPYDTFVIRPGIPHAGEGLRVLEVSSNSTLAYFFNENDWEKVKKVLNTKKVEEFEVKGKKGMAETENFGLEVVDVTGTAEIKTGGVMNILYAAEGYFILRGKETADLHRGYSCLVPASTDSFTVESERGKIVRIYLKVEGGSHHHHHH”: the “soluble on expression in E. coli” value is recorded as “soluble”.

Take “MSLANLKVNLYGMEFLNPIMTAAGPGAKDGALCQEAAKGGAGAICTKTISVLPADVPRPCMAKTNSGFLNTELWSELPKEQWIEEEYKKVKETGLPVIVSMGYSAEQIAEVAPLVKPYADAVELSTHYVGTDVAPIVNALKAAKAVLDVPVFMKMSPHTDIQTIAKAVEEAGADGLVMINSFGPCMAIDVNTGYPIMGSKAGYGWLSGAPIRPLAIRCIYEASQVVNIPIIGVGGITCGKDVAEMMMAGASAVQVCTEAILKGPSIYGKIAKELNEFLDENGEGHHHHHH”: the “soluble on expression in E. coli” value is recorded as “not soluble”.

For the sequence “GWSFEEQFKQVRQLYEINDDPKRKEFLDDLFSFMQKRGTPINRLPIMAKSVLDLYELYNLVIARGGLVDVINKKLWQEIIKGLHLPSSITSAAFTLRTQYMKYLYPYECEKKNLSTPAELQAAIDGNR”, the “soluble on expression in E. coli” value is listed as “soluble”.

Take “MSLTPYEPFRHLDQMRREFDRFFPDFPIDLPNRHLTLSPKMDVHETDHEVILECDIPGLESKEDLQIDVEPRSVRIEGRIKRSKEVHDERFYRREREIGHFRRVVPLPAEVAEDDIRAAYRNGVLEVRMRKRLDDRRRTIDVEFHLEHHHHHH”: the “soluble on expression in E. coli” value is “soluble”.

As for “MFDIILEIVILLFNLLIQNLISLIKYALPYSLLPKKDLYRKKVLITGAGNGLGKLLAQKFAARGATLILWDINLQSVDELKNEIRGNQGEAHSYEVNLCDPGKIAQVGQQVINDIGKVDILVNNAGIATAKMILDSSENEINRSFDVNVKAHFYTVQQFLPAMLKDNNGHIVTIASAAGKMGSSGLADYSSTKHAAVGFHDSLVAEIMESEKNGVKTTLVCPYYVHTSMFDATGAATRFPWIFPILDTDYVVQKIFEAIETEQEFLVTPRAFYLVFAGIQILPYKAQAMVAQFFGLVQNLERFHK”, the “soluble on expression in E. coli” value is “not soluble”.

As for “MTRTNKWTEREGKADPKYFSHTGNYGESPNHIKKQGSGKGNWGKPGDEIDDLIDNGEIPPVFKKDRRGSNLQSHEQKFENVQKE”, the “soluble on expression in E. coli” value is on record as “not soluble”.

For the sequence “MVGWRRMGLPADSLSDEALLALVARGDEEAFRALFRRYAGSFLALARRMGLDGAAAEDVVQEAMIRVWQKAKEFDPRRGSARAFLLTLGHHAAVDEVRRRAARPLPLEPDPEREEEAFDLPGPGLDEEGHLDRTRLGRALKALSPEERRVIEVLYYQGYTHREAASLLGLPLGTLKTWARRALSKLKEVLREP”, the “soluble on expression in E. coli” value is given as “soluble”.

On to “MAQGYRRDHNHHHESGYKRPSDPGGDLPSDKRHRPPPAEGRTLSADRRLYERHFPLYKQPLELGCFSLDARRNFFNDHRQLRYYVEPRRSPDFNLRDGYTSRFIKRDDGVKEKLDHMLRWILENRHKMQNSNSSSCALGVDFITWRGHLTKVLTTPYETQEGWMMAACKFRGSIYISEVETEQARENRETRSERQEEMMYWGYKFEQYTCADGADGTPDPGGVVNTNEAFCTVVQTRLADQSQTLRV”, for which the “soluble on expression in E. coli” value is listed as “not soluble”.

Regarding “MSLKPASVIIMDEHPIVRMSIEVLLGKNSNIQVVLKTDDSRTAIEYLRTYPVDLVILDIELPGTDGFTLLKRIKSIQEHTRILFLSSKSEAFYAGRAIRAGANGFVSKRKDLNDIYNAVKMILSGYSFFPSETLNFISNTRTPKGGHHDMPLSNREVTVLRYLANGMSNKEIAEQLLLSNKTISAHKANIFSKLGLHSIVELIDYAKSHELLEGHHHHHH”, the “soluble on expression in E. coli” value is recorded as “soluble”.

Take “MNIRCARVDDLMSMQNANLMCLPENYQMKYYFYHALSWPQLSYIAEDHKGNVVGYVLAKMEEDPGEEPHGHITSLAVKRSYRRLGLANKMMDQTARAMVETYNAKYVSLHVRVSNRAALNLYKNTLKFEIVDTEPKYYADGEDAYAMRRDLAKWAEERNIEPADREAYTTAKTTDDKKKNRS”: the “soluble on expression in E. coli” value is reported as “not soluble”.

In the case of “MSLKTIITNLKVYILKGPKEKRPHWVSNFIVPNANELLVILETNQGVEGFGLATSYTDMSPIVHVIESGISEKILGCNPLEPEMLYQSLFNLTASRLAYEKGWSREALIRVSAAVDIACWDIIGKISGLPLYQLFGGFRNKVPCYVTCAYYREGKDHAELKDEIQMLVDQGHQGFKAKVGGLSLAEDLERMELVREIIGPERDLMIDVNRAWDLKTAIEGARLLEPLKPTWLEEPVRWMDDRRELKILAQHTSIPLSGGESESTSYGCRTMIDEKAIQILQFDCTMFGGFTEGRKMTALCDLNHVDVAPHHDCFIHAPLVASSPAGRIVESFTDPERDPLQAELFENPPNIEKGWLTLNEAQGLGLTLSENALAKFGTQIIEGHHHHHH”, the “soluble on expression in E. coli” value is reported as “soluble”.

Turning to “MGSDKIHHHHHHMEKIIVNGRKNGQKIEIACSNLVMGAGDFLRADNMDFAGPVLDQYFEMGGNIFDTARHYRHSEKAIGAWMNMRGNRDSVIIQTKGGHPVREASDVPRVTPEAIHEDISVSLDTLQTDHVELFALHRDNPDVEVGSIMEAMHKEVEAGRVYAIGLSNWELSRIIEANEYAVNHGLTPLSFNSPNFSLAKVNRPRWENCVSANEEMIRWHEATNLPLFSWSSQAGGFFSGRFSEEDTSDTEMVEVYYSEANWERYSRAKQLANQKGCTPIQISLAYVLTQSFPTAAVIGPENTTELQSSVAAAGIKLTASEVDWLDLKA”, the “soluble on expression in E. coli” value is “not soluble”.

For “MGSDKIHHHHHHMTHIVHKGLDFFVKPQKVSLNLNMKIGSLKVHPEDLKLLMKKVPVFMMSYYDNKAFMERELEISSADFPNGVVFFSYYEPVPAELNWDVDKKLISQLTKYFHLYDLVHSINSLIDETEGSSLHIGVYEEWLDRIMVKVPSENTEELRNMLSRFSLLYTTKILWKIFRGNFEELKKRTHEIAYKLYEVAGF”, the “soluble on expression in E. coli” value is on record as “not soluble”.

Take “MGSDKIHHHHHHMSHKFKFLTLPHRSGEVANVFIHGYSAGHDMEDRCALRKCIPSSLHNCINIFAFWPSGHWAKFDDWSSKSILAAGRLSFLAGAGLAVADRAFHFNTSRKRATAMGKTLLSQLETYLLKHHPYVSKVNLVGHSLGGRVVIHALLDLQGKPADDSLVIGDVLLMAAASTLSGDEAKTIGERINGKLYNAWSSDDKVLLFNLGENSAGRQEIDHCQNVPMHGFGHTDYWPRLDRVLRASGFHGYRGGLPSAIQPELVIKNPDPVVADHLLYDLLELTSDGIRSQVVKHLRSSSWTKLETEHPLYLLTKEFQLLGGHCLVNLARGKGLKYVQILLMLAEHYGLVSELHDCAQVIEMEALLISKCFQSSFGEEHVLASMQDIVLQIHGLSEKEYFEQVDALAASLTVTSYISTPETPAPVYRKTGSAQTGDSKELVLASGSFLTSFSTLMPTERMKAAVINLKSAVKPGYSALIPAVAAVFYARLKLNNEGLL”: the “soluble on expression in E. coli” value was “not soluble”.

For “MIAITGATGQLGQHVIENLLKTTPASHLVAIVRNPKKAAPLSQRGIAVRQADYANEAALTTALQGVDKLLLISSSEVGQRTAQHRNVIQAAIAAKVKFIAYTSLLHADKSPLALADEHIETEKMLAESGIPHTLLRNGWYTENYLASVPAALKHGVFIGAAGEGKIASAMRADYAAAAARVIREEGHAGNVYELAGDDAWTLSQLADELTHQSGKKIVYQNLSEVDFAAALKGAGLPDGLADMLANSDAGAAKGGLFDDSHTLRKLIGRPTTTLTESLRSVL”, the “soluble on expression in E. coli” value is recorded as “not soluble”.

For “MKKISEQKRKHLENLVDDQGIIGALAIDQRGALKRMMGKYKEVTAQEISDFKVLVSRCLTPETSAILLDPEYGLAAAENRAQTSGLLLAYEKTGYDASTPGRLPDSLDVWSVKRLKEAGADACKFLLYYDVDESEAINERKKAYIERIGSECLAEEIPFFLEIVSYDANNSDSASKEYAKVKPHKVIEAMKEFSKDRYNVDVLKVEVPVNMNFVEGFGTESLYSQDEAQAFFNMQSEATQLPFIFLSAGVSATMFQETLKFAKKAGSSFNGVLCGRATWADGVLPFVQQGAEAAVAWLETTGKTNVEELNQVLRESAVSVFEKIQ”, the “soluble on expression in E. coli” value was “not soluble”.

For the sequence “GEGSPVGIAILGYGTVGSQVLRLLTENHNDFQHRAGGPLEIKGVAASSVEKHRGSLADQLGLLTDDARSLIARDDVDIVVEVIGGIDYPRELILEALHSGKSVVTANKALVAAHSEELAAAADEAGVDLYFEAAVAAAIPVLGPLRRSLAGDQIQSVAGIVNGTTNFILDAMDSTGASYDDMLAEATRLGYAEADPTADVEGHDAASKAAILASLAFHTRVTYADVYCEGISKITADDINAAKEAGFTIKLLAICERLNVDGVEKVSARVHPTLVPRNHPLASVDKSFNAIFVEAEAAGRLMFYGNGAGGNPTASAVLGDIVGAARNKVFGGRAPGESTYADLPIAPFGEVPTRFHIDMEVEDRVGVLADLAKTFSNHGISLRTVRQAEKDGHARLIVVTHTAKESELEATVEQIKNSDSVKKINSVIRLAG”, the “soluble on expression in E. coli” value was “not soluble”.

For “SGLRKMAQPSGLVEPCIVRVSYGNNVLNGLWLGDEVICPRHVIASDTTRVINYENEMSSVRLHNFSVSKNNVFLGVVSARYKGVNLVLKVNQVNPNTPEHKFKSIKAGESFNILACYEGCPGSVYGVNMRSQGTIKGSFIAGTCGSVGYVLENGILYFVYMHHLELGNGSHVGSNFEGEMYGGYEDQPSMQLEGTNVMSSDNVVAFLYAALINGERWFVTNTSMSLESYNTWAKTNSFTELSSTDAFSMLAAKTGQSVEKLLDSIVRLNKGFGGRTILSYGSLCDEFTPTEVIRQMYGVNLQ”, the “soluble on expression in E. coli” value is “soluble”.

Turning to “MSLPGSSNRPLPSSNDEFHYEDIELPSGYRSEGEVVDLLNPKDELEEPLFSEEPLFPVTTSIPTKTAVSKPKIAPTSAAKDVTFSSSIDSDDCSVAYDNSKPVRQYVLMIDAGSTGSRVHVYQFNNCNPSPKLEEEFFKMIEPGLSSFAGDPEGAAASLDPLLDYAMENVPEEYRRCSPIAVKATAGLRLTGESEAKAILKSVRQHLENDYPFPIVKDGVSILEGSMEGIYAWITINYLLGTLGGKATHSTVAVMDLGGASTQLVFEPRFASDGESLVDGDHKYVLDYNGEQYELYQHSHLGYGLKEARKLIHKFVLNNAEALKESLELLGDSTSIIHPCLHLNASLTHPDSKSEASEVVFVGPSLAHLSLQCRGIAEKALYKDKNCPVRPCSFNGVHQPKFTETFTDSPIYLISYFYDRMISLGMPSTFTIEDMKYLANSVCSGPTYWQDAFSLTDALKELKEEPEWCLDLNYMISLLSVGYEIPNNRQLHTAKKIDNKELGWCLGASLSMLSEQNNGWNCNVKEEIEGHHHHHH”, the “soluble on expression in E. coli” value was “not soluble”.

For “MNPKHSCTNFGADIPVNSQLIVTTSELRQKLKEKNKFILVDNRTWDEHIGKVSGYTYYDKKGRIPGALYGHSGSDSVSLEEYRNIDNTMRNKYEILEMWDKENIDVNKQLIFMCGSGWRAAEVLTYANVIGVENTSLYSDGWMGWSLDNSNLIEVGEHKLEHHHHHH”, the “soluble on expression in E. coli” value is “not soluble”.

“MKIIARDRGTGKTTELVKESARTGQYILASNKSHVRAIEQIAKKAGVTIPYPVTVDEIVSMDRFTCASSIQRDGLLVDEAIMVLSKLIGLKITGATISLEGEQQC”: the “soluble on expression in E. coli” value was “not soluble”.
